± gives the uncertainty stated by the source.
Assay: self-splicing fitness, log relative to wild type (ln ratio); higher = more splicing; Tetrahymena group I intron in knt gene, E. coli kanamycin selection, DiMSum; sequences stand for … in CUCUCU…GGAGGGAAAAGUUAUCAGGCAUGCACCUGGUAGCUAGUCUUUAAACCAAUAGAUUGCAUCGGUUUAAAAGGCAAGACCGUCAAAUUGCGGGAAAGGGGUCAACAGCCGUUCAGUACCAAGUCUCAGGGGAAACUUUGAGAUGGCCUUGCAAAGGGUAUGGUAAUAAGCUGACGGACAUGGUCCUAACCACGCAGCCAAGUCCUAAGUCAACAGAUCUUCUGUUGAUAUGGAUGCAGUUCACAGACUAAAUGUCGGUCGGGGAAGAUGUAUUCUUCUCAUAAGAUAUAGUCGGACCUCUCCUUAAUGGGAGCUAGCGGAUGAAGUGAUGCAACACUGGAGCCGCUGGGAACUAAUUUGUAUGCGAAAGUAUAUUGAUUAGUUUUGGAGUACUCGUGGUCG
Method in brief: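 Pooled colonies went to amplicon sequencing on an Illumina HiSeq 2500 after six replicate transformations. The plates were LB agar with 100 μg/mL carbenicillin, 50 μM IPTG and 0.2% rhamnose, with or without 25 μg/mL kanamycin, incubated overnight at 37°C or 30°C. The E. coli BL21(DE3) library had all eight P1ex-region intron nucleotides randomised, the intron placed in the knt kanamycin-resistance gene on pET-22b(+). DiMSum fitness is the error-weighted combination of replicate fold changes, kanamycin against none, normalised to wild type.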

Sequence | self-splicing fitness (ln) (30 °C) | self-splicing fitness (ln) (37 °C)
UGGAAGCAAUAUUACGGUUC | -3.84 ± 0.2 | -2.21 ± 0.2
UGGAAGCAAUAUUACGUAAC | -2.91 ± 0.33 | -1.71 ± 0.26
UGGAAGCAAUAUUACGUAAU | -3.03 ± 0.18 | -0.953 ± 0.16
UGGAAGCAAUAUUACGUAUA | -2.2 ± 0.26 | -1.27 ± 0.2
UGGAAGCAAUAUUACGUCCA | -2.02 ± 0.39 | –
UGGAAGCAAUAUUACGUCUU | -0.99 ± 0.11 | -0.129 ± 0.13
UGGAAGCAAUAUUACGUGAG | -0.593 ± 0.066 | -0.141 ± 0.098
UGGAAGCAAUAUUACGUGUC | – | -2.38 ± 0.18
UGGAAGCAAUAUUACGUUAG | -0.289 ± 0.094 | -1.07 ± 0.14
UGGAAGCAAUAUUACGUUUU | -3.63 ± 0.33 | -2.43 ± 0.27
UGGCAGCAAUAUUACGAAAU | -3.14 ± 0.29 | -0.617 ± 0.19
UGGCAGCAAUAUUACGACAC | – | -0.701 ± 0.31
UGGCAGCAAUAUUACGAGUU | -4.06 ± 0.3 | -2.48 ± 0.24
UGGCAGCAAUAUUACGAUAA | -0.124 ± 0.1 | 0.0812 ± 0.1
UGGCAGCAAUAUUACGAUGU | -4.09 ± 0.3 | -1.67 ± 0.34
UGGCAGCAAUAUUACGAUUA | -0.716 ± 0.089 | 0.492 ± 0.11
UGGCAGCAAUAUUACGCAAC | -2.74 ± 0.18 | -2.14 ± 0.39
UGGCAGCAAUAUUACGCAAU | -2.31 ± 0.099 | -1 ± 0.12
UGGCAGCAAUAUUACGCCAA | -1.03 ± 0.13 | -0.634 ± 0.12
UGGCAGCAAUAUUACGCCGA | -0.136 ± 0.092 | 0.134 ± 0.1
UGGCAGCAAUAUUACGCUGU | -2.97 ± 0.15 | -2.18 ± 0.21
UGGCAGCAAUAUUACGGCAG | -0.148 ± 0.12 | 0.163 ± 0.14
UGGCAGCAAUAUUACGGGCA | -0.0254 ± 0.11 | -0.0149 ± 0.12
UGGCAGCAAUAUUACGGGGU | -3.97 ± 0.13 | -2.62 ± 0.14
UGGCAGCAAUAUUACGGUUG | -1.46 ± 0.07 | -1.04 ± 0.082
UGGCAGCAAUAUUACGUCUG | -1.31 ± 0.082 | -0.936 ± 0.11
UGGCAGCAAUAUUACGUGCG | -0.238 ± 0.061 | 0.163 ± 0.084

Sequence | self-splicing fitness (ln) (30 °C) | self-splicing fitness (ln) (37 °C)
UGGCAGCAAUAUUACGUUCA | -0.133 ± 0.084 | 0.272 ± 0.1
UGGCAGCAAUAUUACGUUUC | -3.1 ± 0.14 | -2.77 ± 0.26
UGGGAGCAAUAUUACGAAAC | -1.85 ± 0.22 | -1.79 ± 0.49
UGGGAGCAAUAUUACGAACA | -1.33 ± 0.088 | -1.02 ± 0.091
UGGGAGCAAUAUUACGAAUG | -1.99 ± 0.21 | -2.07 ± 0.33
UGGGAGCAAUAUUACGAGCA | -1.28 ± 0.18 | -0.71 ± 0.18
UGGGAGCAAUAUUACGAGCU | -3.52 ± 0.37 | -1.69 ± 0.25
UGGGAGCAAUAUUACGAGGA | – | -3.9 ± 0.47
UGGGAGCAAUAUUACGAGGC | -2.02 ± 0.35 | –
UGGGAGCAAUAUUACGCGUA | -0.6 ± 0.38 | 0.46 ± 0.3
UGGGAGCAAUAUUACGCUGC | – | -1.15 ± 0.28
UGGGAGCAAUAUUACGCUUC | -1.91 ± 0.36 | –
UGGGAGCAAUAUUACGGAGG | -3.43 ± 0.36 | –
UGGGAGCAAUAUUACGGGCG | -2.4 ± 0.27 | -0.751 ± 0.26
UGGGAGCAAUAUUACGGGCU | -1.78 ± 0.35 | –
UGGGAGCAAUAUUACGGUAG | -3.16 ± 0.28 | -1.26 ± 0.21
UGGGAGCAAUAUUACGGUCU | -4.3 ± 0.32 | -2.09 ± 0.22
UGGGAGCAAUAUUACGGUUG | -2.07 ± 0.22 | –
UGGGAGCAAUAUUACGUAGA | -2.19 ± 0.26 | –
UGGGAGCAAUAUUACGUAGU | – | -1.82 ± 0.28
UGGGAGCAAUAUUACGUGUU | -3.63 ± 0.23 | -2.91 ± 0.34
UGGGAGCAAUAUUACGUUCG | -1.34 ± 0.22 | -0.604 ± 0.3
UGGGAGCAAUAUUACGUUUC | -3.05 ± 0.23 | -1.66 ± 0.4
UGGUAGCAAUAUUACGACAA | -0.344 ± 0.41 | -0.278 ± 0.31
UGGUAGCAAUAUUACGACUG | -0.361 ± 0.25 | -0.806 ± 0.3
UGGUAGCAAUAUUACGAGCU | -2.09 ± 0.093 | -1.02 ± 0.12
UGGUAGCAAUAUUACGCACU | -2.2 ± 0.19 | -0.474 ± 0.22

Sequence | self-splicing fitness (ln) (30 °C) | self-splicing fitness (ln) (37 °C)
UGGUAGCAAUAUUACGGCCU | -0.807 ± 0.18 | -0.532 ± 0.39
UGGUAGCAAUAUUACGGCGU | -1.44 ± 0.12 | -0.737 ± 0.12
UGGUAGCAAUAUUACGGGUU | -4.12 ± 0.18 | -3.49 ± 0.24
UGGUAGCAAUAUUACGGUGA | -1.36 ± 0.12 | -1.34 ± 0.12
UGGUAGCAAUAUUACGGUUG | -0.694 ± 0.082 | -0.285 ± 0.11
UGGUAGCAAUAUUACGUAAC | -2.08 ± 0.45 | –
UGGUAGCAAUAUUACGUAUG | -1.66 ± 0.13 | -1.18 ± 0.13
UGGUAGCAAUAUUACGUCAA | -2.31 ± 0.19 | -0.773 ± 0.15
UGGUAGCAAUAUUACGUCAU | -2.49 ± 0.23 | -2.57 ± 0.36
UGGUAGCAAUAUUACGUGGG | -3.64 ± 0.3 | -2.14 ± 0.19
UGUAAGCAAUAUUACGAAUC | -1.82 ± 0.25 | -2.33 ± 0.49
UGUAAGCAAUAUUACGACCU | -0.205 ± 0.13 | -0.0468 ± 0.12
UGUAAGCAAUAUUACGAGCG | 0.195 ± 0.1 | 0.758 ± 0.14
UGUAAGCAAUAUUACGAUAC | -2.7 ± 0.28 | -2.07 ± 0.26
UGUAAGCAAUAUUACGAUCA | 0.319 ± 0.079 | 0.535 ± 0.13
UGUAAGCAAUAUUACGAUCU | 0.361 ± 0.11 | 0.0759 ± 0.13
UGUAAGCAAUAUUACGAUGC | -3.75 ± 0.27 | -2.34 ± 0.28
UGUAAGCAAUAUUACGCAGG | -3.22 ± 0.16 | -3.06 ± 0.24
UGUAAGCAAUAUUACGCAUA | -0.865 ± 0.18 | -1.69 ± 0.17
UGUAAGCAAUAUUACGCCGG | -1.46 ± 0.12 | -0.237 ± 0.13
UGUAAGCAAUAUUACGCGCU | -0.925 ± 0.078 | -0.315 ± 0.11
UGUAAGCAAUAUUACGCUUA | -1.79 ± 0.15 | -2.39 ± 0.19
UGUAAGCAAUAUUACGCUUG | -4.2 ± 0.42 | -1.99 ± 0.21
UGUAAGCAAUAUUACGGAGA | -2.88 ± 0.32 | -1.97 ± 0.42
UGUAAGCAAUAUUACGGGUG | -0.874 ± 0.18 | -0.00955 ± 0.19
UGUAAGCAAUAUUACGGUAU | – | -1.68 ± 0.21

Source: the supplement of paper PMC7877785
